Our source for the IC50 values is publication PMC6695792 (Molecules, 2019).

Usually IC50 stands for the midpoint of a concentration-inhibition curve. A lower IC50 goes with higher potency.

This assay deals with hPD-L1 of the Cis-Bio HTRF assay kit (human, UniProt Q9NZQ7 19-238). The experiment in a line: AlphaScreen or HTRF; Cis-Bio kit, 5 nM hPD-L1 and 50 nM hPD-1, 20 µL, dilution series of the inhibitor up to 5 mM, 2 h at room temperature, duplicates, normalized Hill fit. The note with it: both partners purified. (Bead proximity is the source of the signal in Alpha formats.)

No end group written: not given here.

B1: AUNP-12 peptide (peptide)
chain 1: SNTSESFKFRVTQLAPKAQIKE
chain 2: SNTSESF
modifications: also: bond at chain A 8 at chain B 7 to a chain's C-terminus via isopeptide
As for B1, the 50% inhibitory concentration (IC50) was over 10 mM.
